Values belong to the molecule of their own block, whether it stands above or below them.
Key:
[1] = target: FITC-conjugated 4-((N′-2-methylphenyl)ureido)-phenylacetyl-L-leucyl-L-aspartyl-L-valyl-L-prolyl-L-al; assay: fluorescence polarisation
[2] = target: intact integrin α4β1 on the surface of Jurkat cells (human (endogenous in Jurkat)) (UniProt P13612); assay: flow cytometry on cells
[3] = target: integrin α4β1 (Homo sapiens, UniProt P05556+P13612); assay: Summary statements across α4β1 preparations and cell types; assay type: binding; details: Jurkat, Thp1, KA4 cell surface
[4] = target: intact α4β1 on KA4 cells (Homo sapiens, UniProt P05556+P13612); assay: Fluorescent flow cytometry saturation binding of FITC-LDVP, KA4; details: basal
[5] = target: intact α4β1 on Jurkat cells (Homo sapiens, UniProt P05556+P13612); assay: Fluorescent flow cytometry saturation binding of FITC-LDVP, Jurkat; details: basal
[6] = target: intact α4β1 on Thp1 cells (Homo sapiens, UniProt P05556+P13612); assay: Fluorescent flow cytometry saturation binding of FITC-LDVP, Thp1; details: basal
[7] = target: intact integrin α4β1 on the surface of Jurkat cells (human (endogenous in Jurkat), UniProt P13612;P05556); assay: flow cytometry on cells

Molecule: integrin α4β1 headpiece with high-mannose N-glycans (from UniProt P05556 21-501) (complex)
Kd [1]: 5.2 nM

Molecule: human MAdCAM D1D2 (mucosal addressin cell adhesion molecule, domains 1 and 2) (domain or fragment)
Kd [2]: 13900 nM

Continued, values first:

free energy of the BC state, range on three cell types [3]: -3.2 to -2.5 kcal/mol | P^EO [4]: 1.4 ± 0.3% | P^EO [5]: 1.1 ± 0.2% | P^EO [6]: 0.4 ± 0.1%
Molecule: α4β1: integrin α4β1; intact receptor on the cell surface

Kd [7]: 1000 ± 190 nM
B1: alternatively spliced connecting segment III of human fibronectin (domain or fragment)
chain: DELPQLVTLPHPNLHGPEILDVPSTVQKTPFVTHPGYDTGNGIQLPGTSGQQPSVGQQMIFEEHGFRRTTPPTTATPIRHRPRPYPPNVGEEIQIGHIPREDVDYHLYPHG

Source: publication PMC5748972 (The Journal of Cell Biology, 2018)
